Measurements as given in PMC4574524 (Journal of immunology (Baltimore, Md. : 1950), 2015).

Target: PFD1235w DBLβ3_D4, wild type (P. falciparum 3D7)
Test: SPR

B1: ICAM-1_D1 (domain or fragment)
chain: QTSVSPSKVILPRGGSVLVTCSTSCDQPKLLGIETPLPKKELLLPGNNRKVYELSNVQEDSQPMCYSNCPDGQSTAKTFLTVYWT
Kd: 2.34 nM | koff: 0.00337 s⁻¹
